Assay results: patent publication US20150252074A1, “Antagonist for (Pro)Renin Receptor for the Treatment of Hypertension and Diabetes” (priority 2012, published 2015)
Entries after “also recorded” stand apart in the source; their conditions may differ. Where no end group is shown, it is not given here.

Assays:
[1] = system: Ang II type 1 receptor (AT1R); assay: ICV losartan blockade of the pressor response induced by prorenin or renin; type: in vivo, mice; conditions: losartan 10 ug/ul ICV at 0.3 ul/minute for 10 minutes
[2] = molecular target: T1, (pro)renin receptor (PRR) (Mus musculus, UniProt Q9CYN9); assay: ICV infusion of PRR antagonist peptides against the prorenin-induced pressor response, telemetric BP recording; type: in vivo, C57BI/6J mice; conditions: for effect on prorenin (ICV) induced pressor response (in words): ICV administration, C57BI/6J mice; for ΔMAP (prorenin-induced pressor response in peptide-infused mice): ICV infusion, peptide 45 ng/u1, mouse prorenin 100 ng/ul, vs. prorenin, N=5/group
T1 construct: intracerebroventricular (ICV) cannula for infusion of mouse prorenin (100 ng/ul), PR10, or PR20; from tissue; host or cells: brain of conscious C57Bl/6J mice (in vivo, ICV infusion)
Procedure: C57BI/6J mice (N=5/group) were each implanted with a telemetric probe for BP recording and an intracerebroventricular (ICV) cannula for infusion of mouse prorenin (100 ng/ul), PR10, or PR20 (45 ng/u1) at 0.3 ul/minute for 10 minutes. Mouse prorenin infusion increased the BP (mmHg) in WT mice (ΔMAP: 31.3±1.1); however, the prorenin-induced pressor response was abolished in either PR10 (ΔMAP: 16.9±4.4 vs. prorenin) or PR20 (ΔMAP: 12.7±0.5 vs. prorenin) infused mice.

[3] = molecular target: (pro)renin receptor (PRR) in mouse brain sections (mouse) (UniProt Q9CYN9); assay: cell-based or functional assay
Nefh-PRR mice = assay: Pressor response to ICV infusion of mouse prorenin or mouse renin in neuron-specific PRR knockout mice (Nefh-PRR); type: in vivo; conditions: 100 ng/ul at 0.3 ul/minute for 10 minutes ICV, N=5/group
Procedure: (§1) FIG. 6 is a series of graphs illustrating the pressor response to intracerebroventricular (ICV) infusion of carbachol (FIG. 6A), Ang II (FIG. 6B), renin (FIG. 6C), and prorenin (FIG. 6D) in wild-type (WT) and Nefh-PRR mice. WT and Nefh-PRR mice were implanted with telemetric transmitters and ICV cannula. Two weeks after recovery, mice were ICV infused (0.3μl/min) with carbachol (100 ng/μl), Ang II (100 ng/μl), Ang II (100 ng/μl)+losartan (10 μg/μl), mouse renin (100 ng/μl), mouse prorenin (100 ng/μl), or mouse prorenin (100 ng/μl)+losartan (10 μg/μl) over 10 minutes. Blood pressure (BP) was recorded in conscious freely moving mice. *P<0.05 vs. WT.
(§2) Neuron-specific PRR knockout mice (Nefh-PRR) and wildtype (WT) littermates (N=5/group) were each implanted with a telemetric probe for blood pressure (BP) recording and an intracerebroventricular (ICV) cannula for infusion of mouse prorenin (100 ng/ul), mouse renin (100 ng/ul), or an Ang II type 1 receptor (AT1R) blocker (losartan, 10 ug/ul) at 0.3 ul/minute for 10 minutes. Mouse prorenin infusion increased the BP (mmHg) in WT mice (ΔMAP: 41±5); however, the prorenin induced pressor response was abolished in Nefh-PRR mice (ΔMAP: 5±1).

WT mice = assay: Pressor response to ICV infusion of mouse prorenin or mouse renin in wildtype (WT) mice, telemetric BP recording; type: in vivo; conditions: 100 ng/ul at 0.3 ul/minute for 10 minutes ICV, N=5/group
Procedure: as §1, §2

[4] = molecular target: T2, (pro)renin receptor (PRR) in mouse brain sections (mouse, UniProt Q9CYN9 18-350); assay: FITC-labelled peptide, fluorescence microscopy on mouse brain sections
T2 construct: whole, on cells; Endogenous receptor in mouse brain tissue, not a recombinant construct
Procedure: In order to determine which residues of the PR20 antagonist peptide are involved in binding PRR, an alanine replacement assay was performed. A series of peptides comprising a single alanine substitution at each of the 19 amino acid positions were generated. Each of the 19 alanine substituted peptides and the PR20 peptide were labeled with FITC. Using fluorescent microscopy, each peptide was examined for binding to PRR in mouse brain sections.

T1 sequence (Q9CYN9 18-350): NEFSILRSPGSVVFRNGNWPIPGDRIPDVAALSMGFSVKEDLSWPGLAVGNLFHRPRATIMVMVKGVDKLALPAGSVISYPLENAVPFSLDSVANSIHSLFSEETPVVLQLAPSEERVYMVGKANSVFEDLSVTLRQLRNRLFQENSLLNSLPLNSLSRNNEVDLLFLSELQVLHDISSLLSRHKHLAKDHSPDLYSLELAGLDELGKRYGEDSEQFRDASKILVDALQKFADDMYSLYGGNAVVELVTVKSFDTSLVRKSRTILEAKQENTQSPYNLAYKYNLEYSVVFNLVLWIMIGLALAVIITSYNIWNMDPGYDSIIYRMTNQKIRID
(pro)renin receptor (PRR) in mouse brain sections (mouse), sequence (Q9CYN9 18-350): as above
T2 sequence (Q9CYN9 18-350): as above

Molecule: CCCCc1nc(Cl)c(CO)n1Cc1ccc(-c2ccccc2-c2nn[nH]n2)cc1 [losartan]
- effect on pressor response induced by prorenin or renin (in words) [1]: completely blocked

Molecule: LPTDTTTFKRIFLKRMPSI (PRR antagonist peptide (PR20))
- effect on prorenin (ICV) induced pressor response (in words) [2]: abolished; also recorded: significantly reduced
- ΔMAP (prorenin-induced pressor response in peptide-infused mice) ([2]; 0.3 ul/minute for 10 minutes): 12.7±0.5 mmHg

Molecule: mouse prorenin (from UniProt P06281 22-402) (ligand)
- pressor response to ICV mouse prorenin in WT mice (ΔMAP) [3]: 41 mmHg
- pressor response to ICV mouse prorenin in neuron-specific PRR knockout (Nefh-PRR) mice (ΔMAP) [3]: 5 mmHg

Molecule: IFDNIISQGVLKEDVF (PRR antagonist peptide (PR10))
- effect on prorenin (ICV) induced pressor response (in words) [2]: abolished; also recorded: significantly reduced
- ΔMAP (prorenin-induced pressor response in peptide-infused mice) ([2]; 0.3 ul/minute for 10 minutes): 16.9±4.4 mmHg

B1: mouse prorenin: activating ligand of PRR, infused ICV to induce a pressor response (protein)
chain: LPTRTATFERIPLKKMPSVREILEERGVDMTRLSAEWGVFTKRPSLTNLTSPVVLTNYLNTQYYGEIGIGTPPQTFKVIFDTGSANLWVPSTKCSRLYLACGIHSLYESSDSSSYMENGSDFTIHYGSGRVKGFLSQDSVTVGGITVTQTFGEVTELPLIPFMLAKFDGVLGMGFPAQAVGGVTPVFDHILSQGVLKEEVFSVYYNRGSHLLGGEVVLGGSDPQHYQGNFHYVSISKTDSWQITMKGVSVGSSTLLCEEGCAVVVDTGSSFISAPTSSLKLIMQALGAKEKRIEEYVVNCSQVPTLPDISFDLGGRAYTLSSTDYVLQYPNRRDKLCTLALHAMDIPPPTGPVWVLGATFIRKFYTEFDRHNNRIGFALAR
- ΔMAP (increase of BP by mouse prorenin infusion alone) ([2]; ICV mouse prorenin 100 ng/ul, 0.3 ul/minute for 10 minutes, WT (C57BI/6J) mice): 31.3±1.1 mmHg
- ΔMAP (pressor response to ICV infusion) (Nefh-PRR mice): 5±1 mmHg
- ΔMAP (pressor response to ICV infusion) (WT mice): 41±5 mmHg

B2: mouse renin: mouse renin protein infused ICV to induce a pressor response (protein, UniProt P06281 72-402, looked up)
Renin-1: SPVVLTNYLNTQYYGEIGIGTPPQTFKVIFDTGSANLWVPSTKCSRLYLACGIHSLYESSDSSSYMENGSDFTIHYGSGRVKGFLSQDSVTVGGITVTQTFGEVTELPLIPFMLAKFDGVLGMGFPAQAVGGVTPVFDHILSQGVLKEEVFSVYYNRGSHLLGGEVVLGGSDPQHYQGNFHYVSISKTDSWQITMKGVSVGSSTLLCEEGCAVVVDTGSSFISAPTSSLKLIMQALGAKEKRIEEYVVNCSQVPTLPDISFDLGGRAYTLSSTDYVLQYPNRRDKLCTLALHAMDIPPPTGPVWVLGATFIRKFYTEFDRHNNRIGFALAR
- ΔMAP (pressor response to ICV infusion) (Nefh-PRR mice): 27±2 mmHg
- ΔMAP (pressor response to ICV infusion) (WT mice): 31±5 mmHg

Molecule: LPTDTTTFKRIFLKRMPSI (also: FITC label, site not given here, also called PR20 antagonist peptide) [PR20 peptide labeled with FITC]
- binding result [4]: binds
